B1: B12: anti-Gal3 monoclonal antibody, IgG1 format; VH SEQ ID NO 54, VL SEQ ID NO 55 (antibody, V domains shown)
VH: EVQLVESGGSLVKPGGSLRLSCAASGFTFSNDDMNWVRQAPGKGLEWISSIDGSSRSIYYADFVKGRFTISRDNAKNSLYLQMNSLRAEDTAVYYCVRSSGYSGGGMDVWGRGTLVTVSS
VL: QSVLTQPASVSGSPGQSITISCAGTSSDVGGSYNVAWYQQHPGKAPKLMIYSDSYRPSGVSNRFSGSKSGNTASLTISGLQAEDEADYYCSSYTSNSARVFGGGTKLEIK
modifications: IgG1 constant region
B2: E12: anti-Gal3 monoclonal antibody, IgG1 format; VH SEQ ID NO 56, VL SEQ ID NO 57 (antibody, V domains shown)
VH: EVQLVESGGSLVKPGGSLRLSCAASGFTFSNYAMNWVRQAPGKGLEWISSIYGSSRSIYYADFVKGRFTISRDNAKNSLYLQMNSLRAEDTAVYYCVRSNNAGMDVWGRGTLVTVSS
VL: QSVLTQPASVSGSPGQSITISCAGTSSDVGGYYDVSWYQQHPGKAPKLMIYYDSYRPSGVSNRFSGSKSGNTASLTISGLQAEDEADYYCSSYTSYSTRVFGGGTKLEIK
B3: D11: anti-Gal3 monoclonal antibody, IgG1 format; VH SEQ ID NO 40, VL SEQ ID NO 41 (antibody, V domains shown)
VH: EVQLVESGGSLVKPGGSLRLSCAASGFTFSNYNMNWVRQAPGKGLEWISSIYGSSRYIYYADFVKGRFTISRDNAKNSLYLQMNSLRAEDTAVYYCVRSSYGGMDVWGRGTLVTVSS
VL: QSVLTQPASVSGSPGQSITISCAGTSSDVGGSYNVAWYQQHPGKAPKLMIYYDSYRPSGVSNRFSGSKSGNTASLTISGLQAEDEADYYCSSYTGYSTRVFGGGTKLEIK
modifications: IgG1 constant region

Legend:
[1] = target: T1, murine Gal3 (m-Gal3-FL) (Mus musculus, UniProt P16110); experiment: IgG cross-reactivity ELISA on murine Gal3; format: binding; conditions: purified IgGs 15-20 μg/mL; FIG. 3
T1 construct: Determination of Kd values on human and mouse full-length Gal3; purchased Novalix
T1 sequence (P16110 whole entry): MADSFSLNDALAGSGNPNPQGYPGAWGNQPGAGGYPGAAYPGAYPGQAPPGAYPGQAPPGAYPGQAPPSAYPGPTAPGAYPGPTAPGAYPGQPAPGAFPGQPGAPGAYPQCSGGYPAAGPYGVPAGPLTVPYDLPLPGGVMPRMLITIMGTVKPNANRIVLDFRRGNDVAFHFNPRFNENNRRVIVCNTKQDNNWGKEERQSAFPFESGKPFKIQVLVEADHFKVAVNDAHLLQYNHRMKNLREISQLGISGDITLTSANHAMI
Protocol: (§1) Anti-Gal3 antibodies human/mouse cross-reactivity was tested by ELISA on human Gal3 full-length (Hu-Gal3-FL) and CRD domain (Hu-Gal3-CRD), and on murine Gal3 (m-Gal3-FL).
(§2) Hu-Gal3-FL, Hu-Gal3-CRD and m-Gal3-FL were immobilized at 3 μg/mL via their histidine tag on functionalized microplates. Purified IgGs were added into the wells (15-20 μg/mL final concentration) and detected with an anti-Fab.HRP antibody. A control rabbit antibody directed against Hu-Gal3 (Abcam ab53082 reference) was used at 5 μg/mL as antigen-coating positive control and detected with an anti-rabbit.HRP secondary antibody (7074S-Cell Signaling reference).

[2] = target: T2, Hu-Gal3-FL (Homo sapiens, UniProt P17931); experiment: ELISA dose-response EC50 on human Gal3; conditions: ELISA binding on Hu-Gal3-FL
T2 construct: made in house
T2 sequence (P17931 whole entry): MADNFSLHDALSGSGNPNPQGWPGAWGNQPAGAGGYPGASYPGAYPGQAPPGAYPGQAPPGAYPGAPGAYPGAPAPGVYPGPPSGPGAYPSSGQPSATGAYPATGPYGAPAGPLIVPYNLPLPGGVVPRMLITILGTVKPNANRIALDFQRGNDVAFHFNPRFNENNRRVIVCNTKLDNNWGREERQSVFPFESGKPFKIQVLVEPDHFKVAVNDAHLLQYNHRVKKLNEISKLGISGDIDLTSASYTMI
Protocol: (§3) To determine the half maximal effective concentration (EC50) of the antibodies, ELISA dose-response experiments were performed on Hu-Gal3-FL and on m-Gal3-FL.
(§4) Hu-Gal3-FL and m-Gal3-FL were immobilized at 3 μg/mL through their His-tag on functionalized microplates as before. A 3.3-fold serial dilution was carried-out with the purified IgGs, added to the wells containing immobilized Hu-Gal3-FL or m-Gal3-FL and detected with an anti-Fab.HRP antibody.
(§5) Human/mouse Gal3 EC50 ratio were estimated according to EC50 values (sigmoidal dose-response equation: Y=Bottom+X*(Top−Bottom)/(EC50+X)), a low ratio indicating a high cross-reactivity.

[3] = target: T3, m-Gal3-FL (Mus musculus, UniProt P16110); experiment: ELISA dose-response EC50 on mouse Gal3; conditions: ELISA binding on m-Gal3-FL
T3 construct: made in house
T3 sequence (P16110 whole entry): as the sequence (P16110 whole entry) above
Protocol: as §3, §4, §5

[4] = test system: human Gal3 full-length (Hu-Gal3-FL) and CRD domain (Hu-Gal3-CRD); experiment: IgG cross-reactivity ELISA on human Gal3; format: binding; conditions: purified IgGs 15-20 μg/mL; FIG. 3
Sequence of human Gal3 full-length (Hu-Gal3-FL) and CRD domain (Hu-Gal3-CRD) (P17931 118-250 limits assumed): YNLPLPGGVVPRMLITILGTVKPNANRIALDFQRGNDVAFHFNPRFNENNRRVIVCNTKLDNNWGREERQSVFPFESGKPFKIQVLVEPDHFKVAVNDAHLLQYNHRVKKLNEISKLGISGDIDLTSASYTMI
Protocol: as §1, §2

[5] = test system: murine model of HOCI-induced fibrosis; experiment: HOCI-induced murine fibrosis model: skin and lung collagen (Picrosirius red); format: in vivo, mice; conditions: first experiment
Protocol: (§6) In a first experiment, control mice (n=12) received a daily intradermal injection of 300 μL of sterile phosphate buffer saline (PBS) for 5 consecutive days per week, for a duration of 42 days. HOCI alone and HOCI with antibody (HOCI-antibody) treated mice (n=12 per group) received a daily intradermal injection of 300 μL of HOCI for 5 consecutive days per week, for a duration of 42 days. Antibody-treated mice also received a subcutaneous injection of 20 mg/kg antibody, starting at day minus one and every 5 days between day 5 and day 40. Each antibody was solubilized in sterile, endotoxin-free PBS before injection. In a second experiment, the same protocol was applied, except that duration of the study was 63 days and antibodies were given every 7 days starting at day minus 1 until day 62.
(§7) Mice that received daily injection of HOCI were also treated by intratracheal instillation of 0.5 mg/kg of TD139 compound (HOCI-TD139), a small molecule Gal3 inhibitor. In a first experiment, the administrations started from day 21 and the compound was given every 3 days until day 39. In a second experiment, the administrations started from day 20 and the compound was given every 3 days until day 62. TD139 was initially dissolved in 100% DMSO then diluted 50-fold in endotoxin-free PBS before administration.
At the day of study termination of the first experiment (day 42), skin and lung samples were taken, formalin-fixed and processed to individual paraffin wax blocks. Sections of skin and lung were cut from the blocks and, after rehydration, stained with Picrosirius Red coloration according to the manufacturer's protocol. Subsequently, each slide was examined and remotely analyzed employing the web-based Image J software

[6] = test system: rat model of ARDS; experiment: Rat ARDS model (LPS challenge): total BALF protein (BCA assay); format: in vivo; conditions: antibodies 14 mg/kg x3 prior to LPS; dexamethasone 10 mg/kg oral; vs LPS group; FIG. 17
Protocol: (§8) Positive control rats received 3 doses of sterile phosphate buffer at day minus 11, minus 6 and minus 1 prior LPS challenge (0.25 mg/kg by subcutaneous route at day 1). Negative control rats received one oral dose of Dexamethasone at 10 mg/kg (dissolved in 0.5% carboxymethyl cellulose in deionized water) 2 hours prior LPS challenge (0.25 mg/kg by subcutaneous route at day 1). LPS (lipopolysaccharide) causes an acute inflammatory response, whereas dexamethasone has anti-inflammatory effects thus being the reference treatment in this model.
(§9) Antibody-treated rats received 3 doses of antibodies (14 mg/kg) at day minus 11, minus 6 and minus 1 prior to LPS challenge (0.25 mg/kg by subcutaneous route at day 1). Each antibody was solubilized in sterile PBS before injection.
(§10) Control rats of the experiment received 3 doses of sterile phosphate buffer at day minus 11, minus 6 and minus 1 without LPS challenge at day 1.
The impact of anti-Gal3 antibody treatment in LPS challenged rats were evaluated by quantification of proteins (by BCA assay) in BALF and compared to the positive control group (LPS challenge with PBS treatment) (FIG. 17). The presence of protein in BALF reflects the damage to the air-blood barrier. […] Total BALF protein numeration levels were decreased after treatment with anti-inflammatory dexamethasone.

[7] = test system: plasma IL-6; experiment: HOCI-induced murine fibrosis model: plasma IL-6 (MSD); format: in vivo, mice; conditions: first experiment, day 42; vs HOCI group; FIG. 9
Protocol: as §6, §7
(§11) In the first experiment, a mixed effect model with repeated measurements was performed on Control group, HOCI treated group, HOCI-antibody- and HOCI-TD139-treated groups. The impact of HOCI administration on plasma IL-6 and IL-5 levels was evaluated compared to the control group. The impact of antibody and TD139 treatments was compared to the HOCI group (FIG. 9). IL-6 and IL-5 were quantified by using the MSD technology from Mesoscale.

[8] = test system: murine model of bleomycin-induced fibrosis; experiment: Bleomycin-induced murine lung fibrosis model: body weight and body weight metrics; format: in vivo, mice
Protocol: (§12) Control bleomycin mice named ‘Bleo’ received an administration of 1.65 mg/kg bleomycin by the oropharyngeal route on Day 1. […] Antibody-treated mice also received an administration of 1.65 mg/kg bleomycin by the oropharyngeal route on Day 1 and a subcutaneous injection of 20 mg/kg antibody, starting on day minus one and on days 4, 8, 12, 16 and 20. Each antibody was solubilized in sterile, endotoxin-free PBS before injection. Mice that received bleomycin were also treated by oropharyngeal administration of 0.5 mg/kg of TD139 compound (Bleo-TD139), a small molecule Gal3 inhibitor, starting on day 12 and every 2 days until day 20. TD139 was initially dissolved in 100% DMSO.
Mice were weighed daily. Their growth curves are represented on FIG. 12. Control mice had normal growth with a mean percent increase of 6.4% of their initial body weight measured on day minus 1.
Body weight metrics were assessed by using two parameters called Time to weight growth (TWG) and Time to baseline (TTB), shown on FIG. 13. Time to weight growth corresponds to the point of inflection when mice show an ascending growth curve and start to regain weight within the course of the experiment. Time to baseline corresponds to the number of days required for mice to recover their initial body weight (day minus 1). The median TWG was 10 days for the untreated bleomycin group. […] TD139 compound had no efficacy on this parameter (p-value 0.53).

[9] = test system: plasma IL-5; experiment: HOCI-induced murine fibrosis model: plasma IL-5 (MSD); format: in vivo, mice; conditions: first experiment, day 42; vs HOCI group; FIG. 9
Protocol: as §6, §7, §11

[10] = test system: rat model of ARDS; experiment: Rat ARDS model (LPS challenge): neutrophils counts in BALF; format: in vivo; conditions: antibodies 14 mg/kg x3 prior to LPS; dexamethasone 10 mg/kg oral; vs LPS group; FIG. 16
Protocol: as §8, §9, §10
The impact of anti-Gal3 antibody treatment in LPS challenged rats were evaluated by quantification of neutrophils in Bronchoalveolar Lavage Fluid and compared to the positive control group (LPS challenge with PBS treatment) (FIG. 16). […] Neutrophils numeration levels were decreased after treatment with anti-inflammatory dexamethasone.

[11] = test system: plasma TNF alpha; experiment: Rat ARDS model (LPS challenge): plasma TNF alpha (MSD); format: in vivo; conditions: 4 h following LPS challenge; vs LPS group; FIG. 18
Protocol: as §8, §9, §10
For all rats, plasma sampling was performed 4 h following LPS challenge.
The impact of anti-Gal3 antibody treatment in LPS challenged rats were evaluated on plasma cytokine levels, namely TNF alpha and KC-GRO cytokines, and compared to the positive control group (LPS challenge with PBS treatment) (respectively FIG. 18A and FIG. 18B). TNF alpha and KC-GRO were quantified by using the MSD technology from Mesoscale.

[12] = test system: plasma Gal3; experiment: HOCI-induced murine fibrosis model: plasma Gal3 (ELISA); format: in vivo, mice; conditions: first experiment, day 42; FIG. 10
Protocol: as §6, §7
In the first experiment, the plasma levels of Gal3 were measured at day minus 1 (before antibody administration) and at termination day (day 42) using a mouse Galectin-3 DuoSet ELISA kit (R&D Systems, DY1197) according to the manufacturer's instructions. Plasma samples were diluted 1:200 in order to fit with the dynamic range of the assay.

[13] = test system: murine model of bleomycin-induced fibrosis; experiment: Bleomycin-induced murine lung fibrosis model: Modified Ashcroft fibrosis score; format: in vivo, mice
Protocol: as §12
Mice were submitted for terminal euthanasia on day 21. The lungs were collected for histopathological examination and gravity inflation-fixed with 10% neutral buffered formalin (NBF) before being immersion fixed in NBF.
Sections were taken and then placed on three slides as indicated by the code numbers on FIG. 14.
Three longitudinal sections parallel to and bisecting the main stem bronchus were trimmed from the left lung and right caudal lung lobes and mounted in cassettes 01 and 02, respectively. The right cranial, middle and accessory lung lobes were sectioned longitudinally and mounted in cassette 03. All sections were stained with picrosirius red and scored in a blinded manner by a certified veterinary pathologist using the Modified Ashcroft fibrosis score (0-8), where “0” corresponds to “normality (no fibrosis) and “8” corresponds to the highest possible fibrosis score, as described by Hübner et al. (2008) but based on assessment across the whole section of lung.

[14] = test system: murine model of HOCI-induced fibrosis; experiment: HOCI-induced murine fibrosis model: skin thickness; format: in vivo, mice; conditions: first experiment
Protocol: as §6, §7
The evolution of skin thickness was monitored by using an external caliper, every seven days until sacrifice.

Molecule | IgG binding to murine Gal3 (m-Gal3-FL) by ELISA [1] | hGal3 EC50 [2] | mGal3 EC50 [3] | IgG binding to human Gal3 (Hu-Gal3-FL, Hu-Gal3-CRD) by ELISA [4] | lung collagen levels ([5]; day 42, FIG. 8A) | skin collagen levels ([5]; day 42, vs HOCI group, FIG. 8B) | total BALF protein [6] | plasma IL-6 levels [7] | reduction of median Time to baseline (TTB) ([8]; median TTB 20 days for untreated bleomycin group, FIG. 13) [days] | reduction of median Time to weight growth (TWG) ([8]; median TWG 10 days for untreated bleomycin group, FIG. 13) [days] | mean percent weight increase on day 21 compared to day minus 1 ([8]; untreated bleomycin group +1.9%, control mice 6.4%) [%] | plasma IL-5 levels [9] | neutrophils counts in BALF [10] | TNF alpha plasma levels [11] | plasma Gal3 levels [12] | frequency of animals with fibrosis score of 2 ([13]; day 21, 7.4% in untreated bleomycin group) [%] | frequency of animals with fibrosis score of 3 ([13]; day 21, 43.2% for bleo group) [%] | frequency of animals with fibrosis score of 4 ([13]; day 21, 44.4% in bleo group) [%] | HOCI-induced increase in skin thickness ([14]; 42 days, antibody 20 mg/kg s.c., TD139 0.5 mg/kg intratracheal, vs HOCI group, FIG. 7A) | day from which reduction of skin thickness was significant ([14]; sustained effect until day 42) [days]
B1 | Lower binding signals | too high to be determined | too high to be determined | Lower binding signals |  |  |  |  |  |  |  |  |  |  |  |  |  |  |  | 
B2 | much lower on the m-Gal3 than on the Hu-Gal3-FL and Hu-Gal3-CRD | too high to be determined | too high to be determined |  |  |  |  |  |  |  |  |  |  |  |  |  |  |  |  | 
B3 |  |  |  |  | restored lung collagen levels to those of control mice | significantly reduced | also decreased | significantly decreased the plasma IL-6 levels to values similar to those of control mice | 2.7 | 1.3 | 4.4 | decreased significantly | also decreased | also decreased, displaying an intermediary profile | restored the plasma Gal3 levels to values similar to those of the control group | 17.8 | 61.1 | 20 | significantly reduced | 21
